One experiment concerns MRL/MpJ-Fas^lpr mice. Briefly: Prevention of spontaneous SLE in MRL/MpJ-Fas^lpr mice. Format: in vivo. Particulars: for heavy proteinuria, ^33 g/l (+++) at week 17 of age, mice affected/treated: peptides 100 μg i.p. in PBS at weeks 12, 18, 24, TCV 2×10^7 cells i.p. at 12 weeks; for death by week 33 of age, percent of mice / heavy proteinuria, ^33 g/l (+++) at week 17 of age, percent of mice: same treatments. An excerpt: Proteinuria was detected with Albustix strips (Bayer, Slough, UK). Leukocytes were counted from heparinized blood following 10-fold dilution in 1% acetic acid.
Thus, modulation of the p53 immune network should affect the course of SLE. A preliminary experiment was designed to see whether the spontaneous SLE development in MRL/MpJ-Fas^lpr mice might be influenced by administering to these mice peptides involved in the p53 network: the CDR peptides of the light and the heavy chain of PAb-421 depicted in FIG. 10 (administered as a mixture), or peptide 364-383 (residues 364-383 of SEQ ID NO:1) of the carboxy terminal domain of p53. The mice were intraperitoneally injected with 100 μg of the p53 peptide epitope of PAb-421 in PBS, or with 100 μg of peptides derived from variable region of PAb-421 in PBS at weeks 12,18, and 24 of age and followed for the development of SLE symptoms. […] Treatment with the peptides derived from the variable region of PAb-421 protected all five mice from development of proteinuria (0%; Table 2: 421: CDR). At week 33 of age, 5 of 6 non-treated mice (83%, cf. Table 2) were dead, whereas none of the mice treated with either peptide had died (0% each; see Table 2).
Also carried out was T cell vaccination against immunity to PAb-421. MRL/MpJ mice were immunized intradermally with 30 μg PAb-421 in complete Freund's adjuvant, followed by a boost in incomplete Freund's adjuvant. Cells derived from the draining lymph nodes, which were enriched for T cells reactive to PAb-421 and the p53 epitope peptide of PAb-421, were activated with 2 μg per ml Concanavalin A. Twelve week old MRL/MpJ-Fas^lpr mice were then injected intraperitoneally with 2×10^7 freshly activated and gamma-irradiated (2500 rad) cells per mouse. At 17 weeks of age, only 1 out of 8 treated mice […] developed severe proteinuria, while, in contrast, 6 out of 8 untreated control mice (75%) developed severe proteinuria. 421-TCV vs. not treated.

Experiment [1] deals with single-stranded or double-stranded calf thymus DNA. Nature of the experiment: ELISA binding of IDI-1 and IDI-2 to calf thymus DNA, with or without gamma-irradiation. Particulars: for change of binding to single-stranded DNA after gamma-irradiation of the DNA: 0-10,000 rad, depending on the radiation dose; for reactivity to DNA (FIG. 7): single-stranded or double-stranded DNA. Here is the method:
(§1) FIG. 7 is a graph showing the reactivities of monoclonal antibodies IDI-1 and IDI-2, which were selected for idiotypic binding to PAb-421. […] The binding to single-stranded or double-stranded calf thymus DNA was assessed by ELISA after the DNA had been gamma-irradiated with the indicated dosages (0-10,000 rad).
For anti-DNA ELISA, a secondary antibody conjugated to horseradish peroxidase, and as substrate 1 mg/ml ABTS in 0.2 M citric acid, 0.2 M Na2HP04, and 3% H202 (all from Sigma) was used. The test antigens used were (Fab) 2 fragments of Ab2 anti-PAb-421, which were prepared as described (Harlow et al, 1988), recombinant p53, the p53 peptide epitope of PAb-421, histones or, after pre-coating with methylated BSA, calf thymus DNA (all from Sigma). All antibody titers are shown as the O. D. produced by the test sera at a dilution of 1:100. Dots represent individual sera, bars represent the median of each group.
(§2) Two monoclonal antibodies, IDI-1 and IDI-2, could be isolated which had been selected for idiotypic binding to PAb-421 and their reactivities were determined. […] Thus, these two novel monoclonal antibodies of the present invention appear to mimic the DNA-binding specificity of p53. Thus, such antibodies could serve as models of the critical regulatory conformation of the carboxy-terminal domain of p53.

Experiment [2] has as its system mouse antibodies other than PAb-421, like R73. Nature of the experiment: Reactivity of IDI-1 and IDI-2 to control mouse antibodies. Particulars: control mAb. Format: binding. On the procedure: as §1, §2
Experiment [3] relates to single-stranded homooligomers (20-mers) of dG, dA, dC and dT. Nature of the experiment: Band-shift assay with single-stranded homooligomers. Particulars: preliminary studies. Format: binding. An excerpt:
Preliminary studies were done to define the oligonucleotide motifs recognized by IDI-1 and IDI-2 and to test whether p53 itself might bind the same oligonucleotide. Single-stranded homooligomers (20-mers) of dG, dA, dC and dT were used. […] Thus, dG is an important ligand for the anti-DNA monoclonal antibodies and for p53 itself. This further supports the presumptions that IDI-1 and IDI-2 mimic the carboxy terminal conformation of p53. In fact, the binding of the antibody to oligo dG is evidence that the antibody actually mimics the C-terminal domain of p53.

The test system of the next experiment is PAb-421. Nature of the experiment: Reactivity of monoclonal antibodies IDI-1 and IDI-2 to PAb-421. Format: binding, mouse. Here is the method: as §1
To generate such antibodies, BALB/c mice were immunized with PAb-421 and selected hybridomas producing anti-idiotypic antibodies that bound PAb-421 and could also bind DNA were isolated.
as §2

As to “421-Epitope: p53 peptide SYLKTKKGQSTSRHKKTMVK, residues 364-383 of SEQ ID NO:1, carboxy terminal domain of p53 (listed as Mus sp.)”, the “death by week 33 of age, mice dead/treated” value in the experiment with MRL/MpJ-Fas^lpr mice (peptides 100 μg i.p. in PBS at weeks 12, 18, 24) was 0/6. Moreover, in the experiment with MRL/MpJ-Fas^lpr mice, the “heavy proteinuria, ^33 g/l (+++) at week 17 of age, mice affected/treated” value is listed as 2/5; the “death by week 33 of age, percent of mice” value is given as “(0%)”; the “heavy proteinuria, ^33 g/l (+++) at week 17 of age, percent of mice” value is listed as “(33%)”. Besides, in the experiment with MRL/MpJ-Fas^lpr mice (listed as 421-epitope), the “heavy proteinuria, ^33 g/l (+++) at week 17 of age, mice affected/treated” value is listed as 2 out of 5; the “death by week 33 of age, percent of mice” value is 0%; the “heavy proteinuria, ^33 g/l (+++) at week 17 of age, percent of mice” value was 40%.

B1: IDI-1: Ab2 monoclonal antibody anti-idiotypic to PAb-421 that binds DNA; VH and VL SEQ ID NOs:4 and 5 (antibody, listed as Mus sp., V domains shown)
VH: IPQVQLQQSGAELVRPGASVKLSCKASGYIFTSYWINWVRQRPGQGLEWIGNISPADSSTNYNQKFKDKATLTVDKSSTTAYMQLSRPTFEDSAVYYCAREEVRRRRDMDFWGQGTSVTVSSAKTTPPC
VL: RKLDIVITQDELSNPVTSGESVSISCRSRQSLLYKNGKTYLNWFLQRPGQSPQLLIYLMSIRASGVSDRFSGNGSGTDFTLEISRVRAEDVGVYYCQQLVEYPYTFGGGTKLEIKRADAAPT
modifications: BINDING (28)..(37) Complementary Determining Region; BINDING (27)..(42) Complementary Determining Region
As for B1, in experiment [1], the “change of binding to single-stranded DNA after gamma-irradiation of the DNA” value is recorded as “markedly enhanced” and the “reactivity to DNA (FIG. 7)” value is reported as “specific reactivity”. In addition, in experiment [2], the “reactivity to mouse antibodies other than PAb-421” value is “No reactivity”. In addition, in experiment [3], the “binding to homooligomers in band-shift assay” value (from here on “binding … in band-shift assay”) is listed as “bound to the dG oligomer better than they did the others”. Besides, the “reactivity to PAb-421 (FIG. 7)” value in the experiment on PAb-421 is “specific reactivity”.

B2: p53: recombinant mouse p53 protein expressed in E. coli (protein, UniProt P02340 1-390, looked up)
Cellular tumor antigen p53: MTAMEESQSDISLELPLSQETFSGLWKLLPPEDILPSPHCMDDLLLPQDVEEFFEGPSEALRVSGAPAAQDPVTETPGPVAPAPATPWPLSSFVPSQKTYQGNYGFHLGFLQSGTAKSVMCTYSPPLNKLFCQLAKTCPVQLWVSATPPAGSRVRAMAIYKKSQHMTEVVRRCPHHERCSDGDGLAPPQHLIRVEGNLYPEYLEDRQTFRHSVVVPYEPPEAGSEYTTIHYKYMCNSSCMGGMNRRPILTIITLEDSSGNLLGRDSFEVRVCACPGRDRRTEEENFRKKEVLCPELPPGSAKRALPTCTSASPPQKKKPLDGEYFTLKIRGRKRFEMFRELNEALELKDAHATEESGDSRAHSSYLKTKKGQSTSRHKKTMVKKVGPDSD
On to B2, for which the “binding … in band-shift assay” value in experiment [3] is “bound to the dG oligomer better than they did the others”.

B3: IDI-2: Ab2 monoclonal antibody anti-idiotypic to PAb-421 that binds DNA; VH and VL SEQ ID NOs:6 and 7 (antibody, listed as Mus sp., V domains shown)
VH: QVQLQQSGPELVKPGASMKISCKASGYSFTGYTINWVKQSHGKNLEWIGLINPYNGGTCYNPKFKGKATLTVDKSSSTAYMELLSLTSEDSAVYYCARRVWLRRDGFYYAMDYWGQGTSVTVSSAKTTPP
VL: AVSLGQRATISCQASESVSFAGTSLMHWYQQKPGQPPKLLIYRASKLESGVPARFSGSGSESDFTLTIDPVEEDDAAMYYCMQSMEDPYTFGGGTKLEIKRADAAPTVSIFPPS
modifications: BINDING (26)..(35) Complementary Determining Region; BINDING (13)..(27) Complementary Determining Region
For the molecule B3, in experiment [1], the “change of binding to single-stranded DNA after gamma-irradiation of the DNA” value is recorded as “somewhat less” and the “reactivity to DNA (FIG. 7)” value is “specific reactivity”. For the same molecule, the “reactivity to mouse antibodies other than PAb-421” value in experiment [2] is given as “No reactivity”. The “binding … in band-shift assay” value in experiment [3] is given as “bound to the dG oligomer better than they did the others”. Besides, the “reactivity to PAb-421 (FIG. 7)” value with PAb-421 is recorded as “specific reactivity”.

These data come from US20060030524A1, “Treatment of systemic lupus erythematosus by down-regulating the autoimmune response to autoantigens” (Yeda Research and Development Co. Ltd., priority 1998, published 2006).
